In the nanobody polyreactivity screen of Harvey et al. (2022):

Assay: yeast display, Sf9 membrane polyspecificity reagent, FACS + sequencing; frameworks hold sequencing errors
In short: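 Galactose-induced (36–48 hours) yeast carrying a synthetic nanobody display library were exposed to 10% biotinylated, detergent-solubilized Sf9 membrane reagent at 4 °C for 1 hour. FACS followed streptavidin microbead enrichment, using low and high (top ~1%) gates for expression (anti-HA) and reagent binding (streptavidin). Colony PCR, MiSeq 2 × 250 sequencing and CDR-length filtering followed. Labels for polyreactivity reflect the gate of origin.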

Sequence | polyreactivity (PSR sort gate)
QVQLVESGGGLVQAGGSLRLSCAASGLTFTTYTMGWYRQAPGKERELVAAISSRGGSTYYADSVKGRFTISRDNAKNTVYLQMNSLKPEDTAVYYFNAPRPHRMDWGQGTQVTVSS | high polyreactivity
QVQLVESGGGLVQAGGSLRLSCAASGLTFVFYAMGWYRQAPGKETELVAAISSSGGSTNYADSVKGRFTISRDNEKNTVYLQMKSLKPEDTAVYYCAATPYYSQYDYWGQGTQVTVSS | high polyreactivity
QVQLVESGGGLVQAGGSLRLSCAASGLTFVNYAMGWYRQAPGKERELVATISKTGGSTYYADSVKGRFTISRDNAKNTVYLQMNSLKPEDTAVYYCAVDAFYYKWYDYWGQGTQVTVSS | high polyreactivity
QVQLVESGGGLVQAGGSLRLSCAASGLTFVPYAMGWSRQAPGNERELFAAITWSGGSTYYADSVKGRFTISRDNAKNTVYLQMNSLKQEDTAVYYCAADFLLSTSTEYYYWGHGTQVTVSS | high polyreactivity
QVQLVESGGGLVQAGGSLRLSCAASGLTFVYYAMGWYRQAPGKERELVAAISSGGRTYYADSVKGRFTISRDNAKNTVYLQMNSLKPEDTGVYYCAAYGGTHYTYRYDYWGQGTQVNVSS | high polyreactivity
QVQLVESGGGLVQAGGSLRLSCAASGLTFWDYAMGWYRQAPGKERELVAGINTRGTSTYYADSVKGRFTISRDNAKNTVYLQMNSLKPEDTAVYYCAAEFFGYWYGIQYDYWGQGTQVTVSS | high polyreactivity
QVQLVESGGGLVQAGGSLRLSCAASGLTFWWYAMGWYRQAPGKERELVAAISSSGGSTYYADSVKGRFTISRDIAKNTVYLQMNSLKPEDTAVYYCAVASWDNYWDPYGYWGQGTQVTVSS | low polyreactivity
QVQLVESGGGLVQAGGSLRLSCAASGLTFWWYAMGWYRQAPGKQRELVAGITGGGSTSYADSVKGRFTISRDNAKNTVYLQMNSLKPEDTAVYYCAASPYNGQRTWYKYFFLGDYWGQGTQVTVSS | high polyreactivity
QVQLVESGGGLVQAGGSLRLSCAASGLTFWYYVMGWYRQAPGKERELVAAINIGGSTKYAYSVKGRFTISRDNAKNTVYLQMNSLKPEDTAVYYCAAQYYYTGTRSIRSFDYWGQGTQVTVSS | low polyreactivity
QVQLVESGGGLVQAGGSLRLSCAASGLTFYAYAMGWYRQAPGKERELVAAISWTGGRTYYADSVKGRFTISRDNAKNTVYLQMNSLKPEDTAVYYCAAEVFTTGSFRRYDYWGQGTQVTVSS | high polyreactivity
QVQLVESGGGLVQAGGSLRLSCAASGLTFYGNAMGWYRQAPGKERELVAAISSSGGTTYYADSVKGRFTISRDNAKNTVYLQMNSLKPEDTAVYYCAARPSGGYESTRTRDYWGQGTQVTVSS | low polyreactivity
QVQLVESGGGLVQAGGSLRLSCAASGLTFYGYGMGWYRQAPGKERELVASITSGGNTYYADSVKGRFTISRDNAKNTVYLQMNSLKPEDTAVYYCAVTAIALYYSSGYYWGQGTQVTVSS | low polyreactivity
QVQLVESGGGLVQAGGSLRLSCAASGLTFYHYDMGWYRQAPGKERELVAAINFSAGITYYADSVKGRFTISRDNAKNTVYLQMNSLKPEDTAVYYCAAEPEWWWRGYGYWGQGTQVTVSS | low polyreactivity
QVQLVESGGGLVQAGGSLRLSCAASGLTFYLYAMGWYRQAPGKERELVAAITSAGITYADSVKGRFTISRDNAKNTVYLQMNSLKPEDTAVYYCASSIDCGKCLGRRYDYWGQGSQVTVSS | low polyreactivity
QVQLVESGGGLVQAGGSLRLSCAASGLTFYNNAMGWYRQAPGKERELVARISSGGSTYYADSVKGRFTISRDNAKNTVYLQMNSLKPEDTADYYCAAGRGYWWWYGYDYWGQGTQVTVSS | low polyreactivity
QVQLVESGGGLVQAGGSLRLSCAASGLTFYQNAMGWYRQAPGKERELVAAISSIGGTYYADSVKGRFTISRDNAKNTVYLQMNSLKPEDTAVYYCAKRSRYPYYPYGYWGQGTQVTVSS | high polyreactivity

Sequence | polyreactivity (PSR sort gate)
QVQLVESGGGLVQAGGSLRLSCAASGLTFYQYAMGWYRQAPGKERELVAGITSGGSTKYADSVKGRFTISRDNAKNTVYLQMNSLKPEDTAVYYCAARFYAFRKGYYYWGQGTQVTVSS | high polyreactivity
QVQLVESGGGLVQAGGSLRLSCAASGLTFYQYAMGWYRQATGKETELVAAITSAGITYADSVKGRFTISRDNAKNTVYLQMNSLKPEDTAVYYCAKDDYFSYGYVEFDYWGQGTQVTVSS | low polyreactivity
QVQLVESGGGLVQAGGSLRLSCAASGLTFYRNAMGWYTQAPGKERELVATISSSGGSTYYADSVKGRFTISRDNEKNTVYLQMNSLKPEDTAVYYCNARYYSYGPGKTVRYRTGYYGYWGQGTQVTVSS | high polyreactivity
QVQLVESGGGLVQAGGSLRLSCAASGLTFYRYAMGWYRQARGKERELVAAISRRGGRTYSADSVKGRFTISRDNAKTTVYLQMNSLKPEDTAVYYCAAVTRDYRNDRRRQRYYYWGQGTQETVSS | high polyreactivity
QVQLVESGGGLVQAGGSLRLSCAASGLTFYSYAMGWYRQAPGKERELVADISWSGGSTYYADSVKGRFTISRDNAKNTVYLQMNSLQPEDTAVYYCAAEVFPGYDYWGQGTQVTVSS | low polyreactivity
QVQLVESGGGLVQAGGSLRLSCAASGLTFYTNAKGWYRQAPGKEREFVDAITSSGGRKYYADSVKGRFTISRDNAKNTVYLQMNSLKPEDTAVYYCAADARRPRIPEMYYWGQGTQVTVSS | high polyreactivity
QVQLVESGGGLVQAGGSLRLSCAASGLTFYVYAMGWYRQAPGKEREFVAAISWSGTSTSYADSVKGRFTISRDNAKNTVYLQMNSLKPEDTAVYYCAADVHTPALYTYAAGDYWGQGTQVTVSS | low polyreactivity
QVQLVESGGGLVQAGGSLRLSCAASGLTFYVYTMGWYSQAPGKEWELVAAISSGTTTHYADSVKGRFTISRDNAMNTVYLQMNSLKPEDTAVYYCGADLYHYSRDGYWGQGTQVTVSS | low polyreactivity
QVQLVESGGGLVQAGGSLRLSCAASGLTFYYNAMGSYRQAPGKERELVAAISRSAGSTYYADSVKGRFTISRDNAKNTVYLQMHSLKPEDTAVYYCAVGYVYTRKGRVQPVKYDYWGQGTQVTVSS | high polyreactivity
QVQLVESGGGLVQAGGSLRLSCAASGLTFYYNAMGWYRQAPGKERELVAAISRSGGSTYYADSVKGRFTISRDNAKNTVYLQMNSLKPEDTAVYYCAVGYVYTRKGRVQPVKYDYWGQGTQVTVSS | high polyreactivity
QVQLVESGGGLVQAGGSLRLSCAASGLTFYYYAMGWYRPAPGKERELVARISSGTSTYYADSVKGRFTISRDNAKNTVYLQMNSLKPEDTAVYYCNARRKLGSTHGPWGGLEYWGQGTQVTVSS | low polyreactivity
QVQLVESGGGLVQAGGSLRLSCAASGLTFYYYAMGWYRQAPGKEREIVAAISRSGGTTYYADSVKGRFTISRDTAKNTVYLQMNSLKPEDTAVYYCNAQWWRYWPSQVIFDYWGQGTQVTVSS | high polyreactivity
QVQLVESGGGLVQAGGSLRLSCAASGLTFYYYAMGWYRQAPGKERELVAAISRSGGSTYYADSVKGRFTISRDNAKNTVYLQMNSLKPEDTAVYYCAADYFTLYPYRGYDYWGQGTQVTVSS | low polyreactivity
QVQLVESGGGLVQAGGSLRLSCAASGLTFYYYAMGWYRQAPGKERELVAAMSIGGSTDYADSVKGRFTISRDNAKNTVYLQMNSLKPEDTAVYYCNVDDNSEYDYWGQGTQVTVSS | low polyreactivity
QVQLVESGGGLVQAGGSLRLSCAASGLTFYYYAMGWYRQAPGKQRELVAAINSSGGITFYADSVKGRFTISRDNAKNTFYLQMNSLKPEDTAVYYCASGGRSNRYGYWGQGTQVTVSS | low polyreactivity
